Reference: article PMC9974302, “Bacterial division ring stabilizing ZapA versus destabilizing SlmA modulate FtsZ switching between biomolecular condensates and polymers” (Open Biology, 2023)

B1: ZapA (natural protein, E. coli, UniProt P0ADS2 1-109, looked up)
chain: MSAQPVDIQIFGRSLRVNCPPDQRDALNQAADDLNQRLQDLKERTRVTNTEQLVFIAALNISYELAQEKAKTRDYAASMEQRIRMLQQTIEQALLEQGRITEKTNQNFE
modifications: Alexa Fluor 488 on amino groups, only in the tracer fraction (below 1 mole of dye per mole of protein)
notes: Cell division protein ZapA, E. coli; Dimer-tetramer equilibrium that depends on salt; source: BL21(DE3) strain carrying plasmid pEJR029b, purified
B2: FtsZ (natural protein, E. coli, UniProt P0A9A6 1-383, looked up)
chain: MFEPMELTNDAVIKVIGVGGGGGNAVEHMVRERIEGVEFFAVNTDAQALRKTAVGQTIQIGSGITKGLGAGANPEVGRNAADEDRDALRAALEGADMVFIAAGMGGGTGTGAAPVVAEVAKDLGILTVAVVTKPFNFEGKKRMAFAEQGITELSKHVDSLITIPNDKLLKVLGRGISLLDAFGAANDVLKGAVQGIAELITRPGLMNVDFADVRTVMSEMGYAMMGSGVASGEDRAEEAAEMAISSPLLEDIDLSGARGVLVNITAGFDLRLDEFETVGNTIRAFASDNATVVIGTSLDPDMNDELRVTVVATGIGMDKRPEITLVTNKQVQQPVMDRYQQHGMAPLTQEQKPVAKVVNDNAPQTAKEPDYLDIPAFLRKQAD
modifications: Alexa Fluor 488 or Alexa Fluor 647 on amino groups, only in the tracer fraction (below 1 mole of dye per mole of protein)
notes: Cell division GTPase FtsZ, E. coli; The methods name no species for the construct; Oligomers without GTP (GDP form), polymers with GTP; also called FtsZ-Alexa 647; source: purified as described in [6,22,25]

Assays:
[1] = target: the molecule itself; experiment: fluorescence correlation spectroscopy; no GTP (FtsZ oligomers); solution buffer with 100 mM KCl; 10 nM ZapA-Alexa 488 or SBS-Alexa 488 as tracer; 5 uM ZapA, 5 uM SlmA, 1 uM SBS, 50 or 20 uM FtsZ
FtsZ = target: B2; experiment: fluorescence correlation spectroscopy; FtsZ polymers: 10 uM FtsZ, 2 mM GTP and enzymatic GTP regeneration system; 10 nM labelled tracer; solution buffer; details: both partners purified
[2] = target: the molecule itself; experiment: fluorescence polarisation; anisotropy with time after addition of GTP; 5 uM FtsZ with 50 nM FtsZ-Alexa 488 as tracer; solution buffer with 300 mM KCl; 27 C

Binder | stoichiometry N [1] | binding result (FtsZ) | binding result [2]
B1 | 4 | binds | 
B2 |  |  | binds
